# Test results from patent publication US20140056903A1 (Regeneron, published 2014).
# T1: human GFRα1 expressed with a C-terminal human Fc tag and a hexahistidine tag (human, UniProt P56159 25-429, limits assumed)
# T1 construct: bought protein; also called hGFRα1-hFc-6His; hGFRα1-hFc-6his
# T1 sequence (looked up): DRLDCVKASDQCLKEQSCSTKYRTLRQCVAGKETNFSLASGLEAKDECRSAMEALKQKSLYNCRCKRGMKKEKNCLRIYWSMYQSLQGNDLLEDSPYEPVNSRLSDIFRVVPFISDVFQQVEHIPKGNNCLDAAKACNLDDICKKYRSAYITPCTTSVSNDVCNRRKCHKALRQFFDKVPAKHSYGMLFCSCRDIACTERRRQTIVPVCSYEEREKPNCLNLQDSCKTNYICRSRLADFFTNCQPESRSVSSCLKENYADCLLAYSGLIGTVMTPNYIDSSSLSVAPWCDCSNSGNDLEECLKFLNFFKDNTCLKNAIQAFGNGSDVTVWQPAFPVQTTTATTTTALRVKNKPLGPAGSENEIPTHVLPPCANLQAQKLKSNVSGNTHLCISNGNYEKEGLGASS
# T2: human GFRα3 expressed with a C-terminal mFc tag (human)
# T2 construct: also called hGFRα3-mFc
# T2 chain: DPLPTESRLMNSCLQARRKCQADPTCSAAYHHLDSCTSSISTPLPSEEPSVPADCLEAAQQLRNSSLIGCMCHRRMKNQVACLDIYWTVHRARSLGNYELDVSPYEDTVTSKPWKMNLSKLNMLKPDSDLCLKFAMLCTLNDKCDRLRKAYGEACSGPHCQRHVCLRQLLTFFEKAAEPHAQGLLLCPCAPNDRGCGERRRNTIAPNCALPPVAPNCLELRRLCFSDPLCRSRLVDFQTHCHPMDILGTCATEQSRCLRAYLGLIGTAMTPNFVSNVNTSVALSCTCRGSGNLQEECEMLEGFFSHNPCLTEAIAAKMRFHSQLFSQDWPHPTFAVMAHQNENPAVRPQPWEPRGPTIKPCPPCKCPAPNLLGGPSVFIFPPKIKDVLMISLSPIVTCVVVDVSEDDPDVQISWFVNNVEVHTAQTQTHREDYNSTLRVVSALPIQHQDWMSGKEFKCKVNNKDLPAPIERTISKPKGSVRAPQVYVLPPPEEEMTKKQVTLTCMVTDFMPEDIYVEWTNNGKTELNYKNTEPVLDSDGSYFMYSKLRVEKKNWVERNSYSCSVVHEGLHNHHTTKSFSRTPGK
# Biological target: T1, human GFRα1 expressed with a C-terminal …
# Test: BLI Octet, antigen captured on anti-hFc tips
# Procedure: The ability of anti-GFRα3 antibodies to bind to GDNF-family receptors was assessed using an Octet Red biosensor (Fortebio, Inc.). Antibodies were tested for binding to either human GFRα1 expressed with a C-terminal human Fc tag and a hexahistidine tag (hGFRα1-hFc-6His, R&D Systems #714-GR), human GFRα1 expressed with only a C-terminal human Fc tag (hGFRα1-hFc; SEQ ID: 376), human GFRα2 expressed with a C-terminal human Fc tag and a hexahistidine tag (hGFRα2-hFc-6His, R&D Systems #613-FR), human GFRα3 expressed with a C-terminal human Fc tag (hGFRα3-hFc, SEQ ID:371), or an irrelevant human Fc tagged protein. Antigens were captured onto anti-human Fc sensor tips from 10 ug/mL solutions for 5 minutes. The coated sensor tips were then blocked with a 100 ug/mL solution of irrelevant human Fc antibodies for 5 minutes. Blocked sensor tips were then submerged into wells containing […] of each anti-GFRα3 antibody or buffer alone for 10 minutes. The experiment was performed at 25° C. with a flow rate of 1000 rpm using HBST+BSA buffer (10 mM HEPES, 150 mM NaCl, 3 mM EDTA, 0.05% w/v Surfactant P20, 0.1 mg/mL BSA, pH 7.4). The binding response (measured in units of nm) at each step of the experiment was monitored and recorded.
row,binding result,Binder
1,no binding (tested: 100 ug/mL),"H4H2294S (antibody, human IgG4, V domains shown, human IgG4 Fc (H4H)) VH: EVQLVESGGGLVQPGGSLRLSCAASGFTFSSYAMSWVRQAPGKGLEWVSVISGSGGSTYYADAVKGRFTISRDNSKHTLYLQMNSLRAEDTAVYYCTKPSSYSSSNFYYGMDVWGQGSTVTVSS VL: DIQLTQSPSSVSASVGDRVTITCRASQGISSWLAWYQQKPGKAPKLLIYAASSLQSGVPSRFSGSGSGTDFTLTISSLQPEDFATYYCQQTNSFPFPFGPGTKVDIK"
2,no binding (tested: 100 ug/mL),"H4H2352S (antibody, human IgG4, V domains shown, human IgG4 Fc (H4H); also called H4H2352S-1) VH: EVQLVQSGAEVKKPGASVKVSCKASGYTFTNYGITWVRQAPGQGLEWMGWISAYNGNTGYAQKFQGRVTMTTDTSTSTAYMELRSLRSDDTAVYYCAREDYDFWRAFDIWGQGTMVTVSS VL: EIVLTQSPGTLSLSPGERATLSCRASQSVSSTYLAWLQQKPGQAPRLLIYGASSRATGIPDRFSGSGSGTDFTLTINRLEPEDFAVYYCQQYAYSPYTFGQGTKLEIK"
3,no binding (tested: 100 ug/mL),"H4H2243N2 (antibody, human IgG4, V domains shown, human IgG4 Fc (H4H)) VH: QVQLVQSGAEVKKPGASVKVSCKASGYTFTSYGIIWVRQAPGQGLEWMGWISGYNGNTNYAQNLQGRVTMTTDTSTTTAYMELRSLRSDDTAVYYCARWGIATRPYYYYGMDVWGQGTTVTVSS VL: DIQMTQSPSSLSASVGDRVTITCRASQDITNYLAWFQQKPGKAPKSLIYAASSLQSGVPSKFSGSGSGTDFTLTISSLQPEDFATYYCQQYNSYPPTFGPGTKVDIK"
4,no binding (tested: 100 ug/mL),"H4H2292S (antibody, human IgG4, V domains shown, human IgG4 Fc (H4H)) VH: EVQLVESGGGVVQPGRSLRLSCAASGFTFSSYGMHWVRQAPGKGLEWVSFIWYDGSNKYYADSVKGRFTISRDNSKNTLYLQMNSLTAEDTAVYYCARRGILTGTTAFDIWGQGTMVTVSS VL: DIQMTQSPSSLSASVGDRVTITCRASQSISSYLNWYQQKPGKAPKLLIYAASSLQSGVPSRFSGSGSGTDFTLTIRSLIPEDFATYYCQQTYNTPFTFGPGTKVEIK"
5,no binding (tested: 100 ug/mL),"H4H2342P (antibody, human IgG4, V domains shown, human IgG4 Fc (H4H)) VH: EVQLLESGGGLVQPGGSLRLSCAASGFTFSTYAMSWVRQAPGKGLEWVSAIRGNGVNTYYGDSMKGRFTISRDNSKDTLYLQMNSLRAEDTAVYYCAKNKWELLVFEYWGQGTLVTVSS VL: DIQMTQSPSSLSASVGDRVTITCRASQDISNYLAWYQQKPGKVPKLLIYAASTLQSGVPFRFSGSGSGTDFTLTISSLQPEDVATYYCQKYNSAPPFGPGTKVDIK"

# Biological target: T2, human GFRα3 expressed with a C-terminal …
# Test: SPR, Ab captured, 25C; 25° C.
row,koff [s⁻¹],Binder
1,≤ 1e-06,"H4H2292S (antibody, human IgG4, V domains shown, human IgG4 Fc (H4H)) VH: EVQLVESGGGVVQPGRSLRLSCAASGFTFSSYGMHWVRQAPGKGLEWVSFIWYDGSNKYYADSVKGRFTISRDNSKNTLYLQMNSLTAEDTAVYYCARRGILTGTTAFDIWGQGTMVTVSS VL: DIQMTQSPSSLSASVGDRVTITCRASQSISSYLNWYQQKPGKAPKLLIYAASSLQSGVPSRFSGSGSGTDFTLTIRSLIPEDFATYYCQQTYNTPFTFGPGTKVEIK"

# Biological target: T3, human GFRα3 expressed with a C-terminal myc-myc-hexahistidine tag (human, UniProt O60609 32-374, biotinylated (sites not given) in ELISA format 2 and in the Octet cross-competition; not in SPR)
# T3 construct: also called hGFRα3-mmh; hGFRα3-mmH
# Test: blocking ELISA 2, biotin-hGFRα3-mmH to coated hARTEMIN-mmH + hRET-10His; IC50 cell 'enhancer'
# Procedure: The equilibrated sample solutions were then transferred to the hARTEMIN-mmH-coated plate. […] Absorbance was recorded at 450 nm on a Victor X5 plate reader (Perkin Elmer) to determine the amount of free hGFRα3-hFc in the pre-equilibrated hGFRα3-hFc-antibody solutions that was able to bind to the plate coated with hARTEMIN-mmH. IC₅₀ values, defined as the concentration of antibody required to reduce the signal from a constant concentration of hGFRα3-hFc by 50%, were calculated from the data using Prism software from GraphPad. The absorbance measured at the constant amount of 120 pM hGFRα3-hFc in the absence of anti-GFRα3 antibody is defined as 0% blocking and the absorbance with no added hGFRα3-hFc is defined as 100% blocking. The observed absorbance in the wells containing the highest antibody concentration was used to calculate the maximum blocking percent shown in the table.
# In the second ELISA format, the plates, samples and data were processed similarly as for the first format except both hARTEMIN-mmH and human RET with a C-terminal 10 histidine tag (hRET-10His; R&D Systems, #1168-CR/CF) were coated for the blocking ELISA experiment. The 96-well microtiter plates were coated with a mixture of 1.2 ug/ml hARTEMIN-mmH and 6.9 ug/ml hRET-10His proteins in PBS overnight at 4° C. and then blocked with a solution of 0.5% (w/v) BSA. A constant amount of biotinylated human GFRα3 with a C-terminal myc-myc-hexahistidine tag (biotin-hGFRα3-mmH; SEQ ID:370) at 1 nM was pre-mixed with varied amounts of anti-GFRα3 antibodies, ranging from 0 to ˜100 nM in serial dilutions, followed by a 1 hour incubation at RT to allow antibody-biotin-hGFRα3-mmH binding to reach equilibrium. The equilibrated samples were then transferred to the coated plate. After 1 hour of binding, the plate was washed, then the bound biotin-hGFRα3-mmH was detected using HRP conjugated streptavidin (Pierce, #N200), and colorimetric signals were developed using TMB HRP substrates.
# T3 sequence (O60609 other isoform, or with tags, fused parts or gaps limits assumed): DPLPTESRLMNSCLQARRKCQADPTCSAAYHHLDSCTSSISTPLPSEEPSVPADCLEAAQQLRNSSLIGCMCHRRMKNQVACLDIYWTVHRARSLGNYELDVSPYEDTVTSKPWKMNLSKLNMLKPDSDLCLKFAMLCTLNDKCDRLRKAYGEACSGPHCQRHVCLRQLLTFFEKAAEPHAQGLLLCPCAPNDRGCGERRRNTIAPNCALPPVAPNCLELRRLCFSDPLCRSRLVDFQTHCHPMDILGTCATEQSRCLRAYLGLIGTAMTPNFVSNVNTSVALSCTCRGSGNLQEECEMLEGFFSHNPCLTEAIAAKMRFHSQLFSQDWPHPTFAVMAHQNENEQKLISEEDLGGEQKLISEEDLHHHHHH
row,% max blocking [%],Binder
1,28,"H4H2291S (antibody, human IgG4, V domains shown, human IgG4 Fc (H4H)) VH: EVQLVESGGGLVQPGESLRLSCAASGFTFSNYAMSWVRQAPGKGLEWVSVISGSGGSTYYADSVKGRFTMSRDNSKNTLYLQMNSLRAEDTAVYYCAKPPSRAARYFNYGMDVWGQGTTVTVSS VL: AIRMTQSPSSVSASVGDRVTITCRASQGISSWLAWYQQKPGKAPKLLIYAASSLQSGVPSRFSGSGSGTDFTLTISSLQPEDFATYYCQQANSFPFTFGGGTKVEIK"
2,91,"H4H2296S (antibody, human IgG4, V domains shown, human IgG4 Fc (H4H)) VH: not shown VL: DIVMTQSPSSVSASVGDRVTITCRASQGISSWLAWYQQKPGKAPKLLIYAASSLRSGVPSRFSGSGSGTDFTLTITSLQPEDFATYYCQHTNSFPFTFGPGTKVEIK"
3,44,"H4H2295S (antibody, human IgG4, V domains shown, human IgG4 Fc (H4H)) VH: EVQLVESGGGLVQAGGSLRLSCVASGFTFSSYAMSWVRQAPGKGLEWVSAISGSGGSTYSADSVKGRFTISRDNSKNTLYLQMNSLRAEDTAVYYCTKPSSYSSSNFYYGMDVWGQGTTVTVSS VL: DIQMTQSPSSVSASVGDRVTITCRASQGISSWLAWYQQKPGKAPKLLIYTASSLQSGVPSRFSGSGSRTDFTLTISSLQPEDFATYYCQQTNSLPLTFGPGTKVEIK"
4,95,"H4H2355S (antibody, human IgG4, V domains shown, human IgG4 Fc (H4H)) VH: EVQLVESGGGLVQPGGSLRLSCAASGFTFSSYAMSWVRQVPGKGLEWVSAISGSGDNTYNAESVKGRFTISRDNSKNMLYLQMNSLRAEDTAVYYCAKTKFSSSLLFDYWGQGTLVTVSS VL: not shown"
5,68,"H4H2236N3 (antibody, human IgG4, V domains shown, human IgG4 Fc (H4H)) VH: EVQLLESGGNLVQPGGSLRLSCAASGFTFSSYAMTWVRQAPGKGLEWVSTISGSGTSTYYADSVKGRFTISRDNSRDTVFLQMNSLRAEDTAVYYCSKPSALRFLHWLAMDVWGQGTLVTVSS VL: DIQMTQSPSSLSAFVGDRVTITCRASQDIRNYLDWFQQKPGKAPKSLIYAASNLQSGVPSRFGGSGSGTDFTLTINSLQPEDFVTYYCQQYNSYPPTFGGGTKVEIK"
